Target: T1, 6xHis-CTNNBL1Δ76 (human, UniProt Q8WYA6 77-563)
T1 chain: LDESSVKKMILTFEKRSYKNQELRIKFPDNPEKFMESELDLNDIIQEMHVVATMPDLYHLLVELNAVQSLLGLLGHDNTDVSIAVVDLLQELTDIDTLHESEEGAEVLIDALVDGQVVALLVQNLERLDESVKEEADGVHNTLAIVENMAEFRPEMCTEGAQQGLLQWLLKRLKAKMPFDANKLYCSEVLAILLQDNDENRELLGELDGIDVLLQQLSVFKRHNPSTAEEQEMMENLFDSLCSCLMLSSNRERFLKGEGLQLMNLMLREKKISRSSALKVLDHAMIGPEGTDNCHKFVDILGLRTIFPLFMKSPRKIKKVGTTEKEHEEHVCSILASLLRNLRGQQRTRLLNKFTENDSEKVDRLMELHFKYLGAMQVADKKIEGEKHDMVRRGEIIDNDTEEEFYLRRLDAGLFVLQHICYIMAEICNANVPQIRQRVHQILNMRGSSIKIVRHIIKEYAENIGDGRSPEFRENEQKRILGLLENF
Assay: ITC; second site

Binder	Kd
RKKRGGRRYRKMKE (Limits are the UniProt NLS motif (351-364); the exact peptide is shown only in Fig. 4B and may have different flanks) [Prp31 NLS peptide]	~12 µM
KKRKRKR (Limits are the UniProt region required for CTNNBL1 interaction (200-206), taken as the NLS3 core; the assayed peptide is shown only in Fig. 4B and may have longer flanks) [CDC5L NLS3 peptide]	~4 µM
